What was measured:
[1] = biological target: T1, wild-type KaiC with an N-terminal FLAG epitope (cyanobacteria, UniProt Q79PF4 1-519); test: pull-down
T1 sequence: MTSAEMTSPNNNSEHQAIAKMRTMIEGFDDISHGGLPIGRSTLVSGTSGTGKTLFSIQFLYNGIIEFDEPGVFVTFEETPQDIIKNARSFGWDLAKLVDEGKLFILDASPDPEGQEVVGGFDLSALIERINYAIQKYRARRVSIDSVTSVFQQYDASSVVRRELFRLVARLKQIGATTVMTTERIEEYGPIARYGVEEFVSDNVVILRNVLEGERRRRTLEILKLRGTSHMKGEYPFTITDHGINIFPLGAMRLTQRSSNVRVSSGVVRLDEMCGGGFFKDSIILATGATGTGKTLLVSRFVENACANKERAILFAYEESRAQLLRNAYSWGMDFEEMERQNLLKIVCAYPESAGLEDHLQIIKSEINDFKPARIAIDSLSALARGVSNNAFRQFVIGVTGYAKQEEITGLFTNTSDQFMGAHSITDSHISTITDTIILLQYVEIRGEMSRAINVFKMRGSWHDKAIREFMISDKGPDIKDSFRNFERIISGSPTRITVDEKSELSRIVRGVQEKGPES

[2] = biological target: T2, pS KaiC (KaiC-EA; S431E, T432A) (cyanobacteria, UniProt Q79PF4 1-519, S431E | T432A); test: pull-down
T2 sequence: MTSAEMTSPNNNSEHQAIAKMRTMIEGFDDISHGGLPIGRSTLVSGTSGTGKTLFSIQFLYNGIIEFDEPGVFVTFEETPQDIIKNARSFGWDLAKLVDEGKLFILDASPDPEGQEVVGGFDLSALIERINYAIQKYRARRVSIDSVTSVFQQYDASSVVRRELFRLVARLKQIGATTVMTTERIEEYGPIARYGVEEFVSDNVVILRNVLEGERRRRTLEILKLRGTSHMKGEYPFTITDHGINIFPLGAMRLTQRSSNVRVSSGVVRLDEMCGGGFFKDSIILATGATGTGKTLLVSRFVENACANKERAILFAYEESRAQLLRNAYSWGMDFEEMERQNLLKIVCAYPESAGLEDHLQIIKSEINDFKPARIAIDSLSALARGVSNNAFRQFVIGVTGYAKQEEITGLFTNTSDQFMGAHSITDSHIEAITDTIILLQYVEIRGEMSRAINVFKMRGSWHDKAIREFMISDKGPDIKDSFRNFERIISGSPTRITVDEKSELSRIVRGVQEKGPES

[3] = biological target: T1, wild-type KaiC with an N-terminal FLAG …; test: fluorescence polarisation
[4] = biological target: T3, KaiC, wild type (no FLAG epitope) (cyanobacteria, UniProt Q79PF4 1-519); test: fluorescence polarisation
T3 sequence: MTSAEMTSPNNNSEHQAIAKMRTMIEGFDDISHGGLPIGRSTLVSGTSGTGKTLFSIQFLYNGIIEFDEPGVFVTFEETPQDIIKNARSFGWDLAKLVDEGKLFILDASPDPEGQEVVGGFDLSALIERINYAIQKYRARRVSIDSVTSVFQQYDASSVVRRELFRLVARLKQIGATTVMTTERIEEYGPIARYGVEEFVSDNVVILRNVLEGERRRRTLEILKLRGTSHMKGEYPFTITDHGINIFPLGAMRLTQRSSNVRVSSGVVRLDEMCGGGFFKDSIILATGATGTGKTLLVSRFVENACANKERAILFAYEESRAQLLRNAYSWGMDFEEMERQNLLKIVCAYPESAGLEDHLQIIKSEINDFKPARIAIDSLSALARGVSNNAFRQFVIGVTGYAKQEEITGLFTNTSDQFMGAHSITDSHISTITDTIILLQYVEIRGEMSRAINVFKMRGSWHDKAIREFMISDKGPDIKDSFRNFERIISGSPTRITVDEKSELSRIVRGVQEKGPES

B1: biotinylated KaiB (natural protein)
chain: MSPRKTYILKLYVAGNTPNSVRALKTLKNILEVEFQGVYALKVIDVLKNPQLAEEDKILATPTLAKVLPLPVRRIIGDLSDREKVLIGLDLLYGELQDSDDF
modifications: biotin (amine-reactive EZ-Link-Sulfo-NHS-LC-Biotin, 50 x molar excess; sites not determined)
binding result [1]: binds | binding result [2]: binds

B2: FITC-labeled KaiB K25C (natural protein)
chain: MSPRKTYILKLYVAGNTPNSVRALCTLKNILEVEFQGVYALKVIDVLKNPQLAEEDKILATPTLAKVLPLPVRRIIGDLSDREKVLIGLDLLYGELQDSDDF
modifications: FITC label
binding result [3]: binds | binding result [4]: binds

— paper PMC11696221 (Nature Communications, 2025)
